Reference: patent US20220315967A1, “METHODS FOR PRODUCING D-TRYPTOPHAN AND SUBSTITUTED D-TRYPTOPHANS” (priority 2019, published 2022)

Tests used:
[1] = molecular target: T1, D-tryptophanyl-S-IvoA-ΔC(E^0)
T1 chain: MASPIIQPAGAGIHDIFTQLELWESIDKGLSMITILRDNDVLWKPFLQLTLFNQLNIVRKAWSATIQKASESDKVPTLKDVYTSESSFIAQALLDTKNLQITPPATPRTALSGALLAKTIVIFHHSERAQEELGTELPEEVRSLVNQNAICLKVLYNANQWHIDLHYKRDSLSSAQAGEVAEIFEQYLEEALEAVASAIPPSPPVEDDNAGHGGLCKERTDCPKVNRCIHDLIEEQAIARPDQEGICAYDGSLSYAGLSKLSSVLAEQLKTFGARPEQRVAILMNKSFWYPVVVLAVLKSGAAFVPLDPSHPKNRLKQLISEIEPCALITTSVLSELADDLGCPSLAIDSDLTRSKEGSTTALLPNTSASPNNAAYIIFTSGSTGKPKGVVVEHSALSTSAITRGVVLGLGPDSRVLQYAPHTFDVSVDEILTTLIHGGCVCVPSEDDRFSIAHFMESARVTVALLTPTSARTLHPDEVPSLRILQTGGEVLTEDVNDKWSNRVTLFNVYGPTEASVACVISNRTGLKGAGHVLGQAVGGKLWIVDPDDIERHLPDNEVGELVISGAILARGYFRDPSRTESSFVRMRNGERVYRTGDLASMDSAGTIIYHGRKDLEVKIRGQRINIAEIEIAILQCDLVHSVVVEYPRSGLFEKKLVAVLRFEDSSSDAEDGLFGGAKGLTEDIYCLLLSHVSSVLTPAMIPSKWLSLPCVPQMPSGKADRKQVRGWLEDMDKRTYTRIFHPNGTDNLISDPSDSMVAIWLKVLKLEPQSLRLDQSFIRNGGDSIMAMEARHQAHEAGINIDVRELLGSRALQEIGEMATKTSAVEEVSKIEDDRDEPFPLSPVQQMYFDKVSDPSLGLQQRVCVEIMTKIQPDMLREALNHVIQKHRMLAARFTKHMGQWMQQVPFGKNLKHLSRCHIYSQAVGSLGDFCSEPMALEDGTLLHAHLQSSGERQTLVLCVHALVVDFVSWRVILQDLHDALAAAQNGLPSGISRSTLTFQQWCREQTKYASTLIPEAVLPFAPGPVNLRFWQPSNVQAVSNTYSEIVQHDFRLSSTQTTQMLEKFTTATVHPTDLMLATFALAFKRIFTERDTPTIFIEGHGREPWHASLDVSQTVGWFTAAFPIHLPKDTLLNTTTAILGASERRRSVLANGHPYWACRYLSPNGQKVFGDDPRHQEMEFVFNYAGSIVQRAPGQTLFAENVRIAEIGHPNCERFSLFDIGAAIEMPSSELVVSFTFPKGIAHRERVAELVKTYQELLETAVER

[2] = molecular target: T2, IvoA-ΔC truncation mutant
T2 chain: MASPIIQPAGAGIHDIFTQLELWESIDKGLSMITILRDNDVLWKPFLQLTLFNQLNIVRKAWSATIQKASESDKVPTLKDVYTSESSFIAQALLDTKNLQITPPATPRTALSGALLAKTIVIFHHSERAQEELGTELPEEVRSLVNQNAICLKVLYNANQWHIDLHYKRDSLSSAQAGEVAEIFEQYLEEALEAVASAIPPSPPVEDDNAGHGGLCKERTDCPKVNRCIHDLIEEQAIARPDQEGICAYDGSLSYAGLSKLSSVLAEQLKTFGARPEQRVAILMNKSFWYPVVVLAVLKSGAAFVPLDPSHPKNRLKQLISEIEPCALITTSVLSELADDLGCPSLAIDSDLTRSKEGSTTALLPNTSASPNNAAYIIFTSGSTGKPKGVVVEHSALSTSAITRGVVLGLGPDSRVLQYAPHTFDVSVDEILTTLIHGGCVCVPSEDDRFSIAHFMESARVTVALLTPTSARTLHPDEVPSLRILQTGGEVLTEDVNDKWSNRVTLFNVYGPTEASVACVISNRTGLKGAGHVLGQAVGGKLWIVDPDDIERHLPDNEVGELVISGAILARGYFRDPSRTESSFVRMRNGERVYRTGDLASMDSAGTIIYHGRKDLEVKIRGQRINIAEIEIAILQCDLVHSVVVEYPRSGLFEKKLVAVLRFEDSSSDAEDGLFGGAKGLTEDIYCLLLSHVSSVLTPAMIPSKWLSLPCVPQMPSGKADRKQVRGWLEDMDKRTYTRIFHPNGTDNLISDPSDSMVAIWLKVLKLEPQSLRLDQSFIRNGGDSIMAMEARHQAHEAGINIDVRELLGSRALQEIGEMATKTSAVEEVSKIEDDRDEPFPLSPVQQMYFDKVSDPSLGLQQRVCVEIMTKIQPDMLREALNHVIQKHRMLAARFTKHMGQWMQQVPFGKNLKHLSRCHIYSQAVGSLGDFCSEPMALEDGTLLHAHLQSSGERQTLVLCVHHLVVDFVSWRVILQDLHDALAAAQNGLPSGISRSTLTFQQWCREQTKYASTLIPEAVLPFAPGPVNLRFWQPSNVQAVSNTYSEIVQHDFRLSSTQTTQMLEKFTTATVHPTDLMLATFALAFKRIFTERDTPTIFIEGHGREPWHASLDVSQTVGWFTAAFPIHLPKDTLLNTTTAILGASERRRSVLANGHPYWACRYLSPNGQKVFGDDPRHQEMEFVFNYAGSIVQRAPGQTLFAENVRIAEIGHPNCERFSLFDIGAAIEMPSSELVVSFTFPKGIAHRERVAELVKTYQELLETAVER

[3] = molecular target: T3, L-tryptophanyl-S-IvoA-ΔC(E^0)
T3 chain: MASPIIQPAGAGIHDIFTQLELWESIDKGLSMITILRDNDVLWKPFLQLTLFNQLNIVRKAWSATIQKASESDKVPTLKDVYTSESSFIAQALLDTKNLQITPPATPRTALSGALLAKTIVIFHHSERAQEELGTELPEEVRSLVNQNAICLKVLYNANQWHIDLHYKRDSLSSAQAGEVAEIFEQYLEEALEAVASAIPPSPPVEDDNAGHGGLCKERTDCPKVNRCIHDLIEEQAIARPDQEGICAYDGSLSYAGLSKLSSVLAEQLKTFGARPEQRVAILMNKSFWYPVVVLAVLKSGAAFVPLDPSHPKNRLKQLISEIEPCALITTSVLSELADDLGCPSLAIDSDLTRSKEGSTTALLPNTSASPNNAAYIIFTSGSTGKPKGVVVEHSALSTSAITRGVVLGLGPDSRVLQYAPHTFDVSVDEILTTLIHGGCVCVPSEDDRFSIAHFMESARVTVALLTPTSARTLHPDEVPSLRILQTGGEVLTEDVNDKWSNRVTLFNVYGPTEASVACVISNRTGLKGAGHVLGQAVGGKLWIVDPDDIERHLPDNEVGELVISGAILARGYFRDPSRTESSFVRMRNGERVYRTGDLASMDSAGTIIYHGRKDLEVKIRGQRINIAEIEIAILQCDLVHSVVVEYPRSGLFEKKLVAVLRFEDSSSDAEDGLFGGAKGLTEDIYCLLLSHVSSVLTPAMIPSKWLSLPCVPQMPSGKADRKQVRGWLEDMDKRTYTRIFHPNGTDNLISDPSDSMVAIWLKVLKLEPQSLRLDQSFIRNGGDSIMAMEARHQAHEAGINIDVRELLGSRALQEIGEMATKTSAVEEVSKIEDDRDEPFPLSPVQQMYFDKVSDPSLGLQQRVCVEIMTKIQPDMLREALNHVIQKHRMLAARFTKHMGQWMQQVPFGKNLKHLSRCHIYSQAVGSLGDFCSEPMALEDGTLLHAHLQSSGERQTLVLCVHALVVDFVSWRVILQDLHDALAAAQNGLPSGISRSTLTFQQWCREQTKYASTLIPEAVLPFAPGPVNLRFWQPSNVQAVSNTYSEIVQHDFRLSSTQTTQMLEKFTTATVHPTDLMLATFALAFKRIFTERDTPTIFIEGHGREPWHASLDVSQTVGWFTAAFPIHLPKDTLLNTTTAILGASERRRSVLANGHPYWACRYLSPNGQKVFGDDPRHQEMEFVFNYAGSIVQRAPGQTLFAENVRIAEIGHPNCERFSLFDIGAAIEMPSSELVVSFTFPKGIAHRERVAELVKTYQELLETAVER

B1: standalone IvoA-C (condensation (C) domain of Aspergillus nidulans single-module NRPS IvoA) (protein)
chain: DLDLSAKLSSPLVCPADVVRSLEVNGVCIERDVEIVYTPSSIQQHMLWRQSQEPWFYRVQGDWTIEKTTTQSEPVDIDRLSHAWNQVVHRHTTLRTVFRYSSEEERFVAIVLHEVKPAISIIRKGIQTSGSLCRDDDLSPPHRMVLREKDNGSVVCELEFSHTIIDAASRSIVVQDLLDAYDGKLAHRPLDFPPFWEYIRLAQSSTPSARKEELHRAGRVVTLPFQPTHVLSKVPEACKKNEITISSFFMTAWSIVLAKHFVAHNQRVDSTSSQAVAFDYVLSDRSANIPGIESAVGPYIRLPTLETHVKEGVSLKNIARGLHAQCTFQSLSQSTQDGSSLELPSKATALQKYSTLVNIRNSGSDSLDLVSDSGEWKWILQGFSDPWDYDLVFAVNVHAGKVTGWTVEYADGVVEHSAADEIAKDLNDVVERMVCEII
[1]
  IvoA-C catalyzed hydrolysis of the protein-bound thioester; liberated free tryptophan quantified by LC-MS: IvoA-C stereoselectively hydrolyzed D-tryptophanyl-S-IvoA-ΔC(E^0) over L-tryptophanyl-S-IvoA-ΔC(E^0)
[2]
  stereoinversion activity (complementation in trans): Addition of IvoA-C in equimolar to either IvoA(C^0) mutant or IvoA-ΔC truncation mutant successfully rescued the impaired stereoinversion activity
[3]
  IvoA-C catalyzed hydrolysis of the protein-bound thioester; liberated free tryptophan quantified by LC-MS: IvoA-C stereoselectively hydrolyzed D-tryptophanyl-S-IvoA-ΔC(E^0) over L-tryptophanyl-S-IvoA-ΔC(E^0)
